{"source": "patent US7033773B1", "about": "“Screening assays for G protein coupled receptor agonists and antagonists” (The General Hospital Corporation, priority 1997, dated 2006)", "biological_target": "T1, human PTH/PTHrP receptor (Homo sapiens, UniProt Q03431)", "T1 sequence (Q03431 27-593)": "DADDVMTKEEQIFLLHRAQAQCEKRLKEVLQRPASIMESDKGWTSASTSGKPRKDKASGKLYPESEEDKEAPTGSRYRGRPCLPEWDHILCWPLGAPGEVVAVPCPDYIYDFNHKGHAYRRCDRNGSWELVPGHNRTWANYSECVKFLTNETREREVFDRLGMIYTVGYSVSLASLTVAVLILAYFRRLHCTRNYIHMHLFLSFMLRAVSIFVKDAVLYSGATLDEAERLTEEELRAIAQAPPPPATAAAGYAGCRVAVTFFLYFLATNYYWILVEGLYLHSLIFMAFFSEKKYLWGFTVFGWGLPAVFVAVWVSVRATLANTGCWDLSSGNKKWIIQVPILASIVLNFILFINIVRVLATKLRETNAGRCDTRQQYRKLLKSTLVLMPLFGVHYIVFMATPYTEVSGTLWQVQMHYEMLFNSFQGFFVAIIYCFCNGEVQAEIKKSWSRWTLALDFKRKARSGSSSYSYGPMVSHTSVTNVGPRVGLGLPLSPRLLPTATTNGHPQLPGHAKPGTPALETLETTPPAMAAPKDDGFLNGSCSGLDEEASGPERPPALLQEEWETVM", "assay": "Cellular phosphate uptake in LLC-PK1 cells expressing human PTHR", "type": "cell-based", "parameters": "transfected with a full-length human PTH/PTHrP receptor cDNA; expressed in transfected cells", "conditions": "HKRK B28 and HKRK B7 cells; peptides 1000 nM, 6 hr", "protocol": "FIG. 8. Regulation of phosphate uptake by PTH in HKRK B7 and HKRK B28 cells. […] Results are expressed as percentage of basal, and each bar represents the mean±SEM of a representative experiment performed in triplicate. Similar results were obtained from at least 5 individual experiments. Cells were seeded into 24-well plates at a density of 2.5×10^5 cells/well and cultured for a further 2 days before study. Twenty four hours before assay, cells were refed with 0.5 ml of DMEM containing 0.1% BSA. The next day, cells were refed with serum-free medium (DMEM+0.1% BSA) containing drugs or peptides, and the incubations were continued at 37° C. under 5% CO2 in air for another 6 hr. Cells then were washed with prewarmed Buffer B without BSA and Na2HPO4 and then were incubated at 37° C. for 5 min in 0.25 ml of the same buffer containing [^32P]orthophosphate (4 uCi/ml) and 0.1 mM Na2HPO4. Phosphate uptake was arrested by adding 1 ml of ice-cold sodium-free “stop buffer” [10 mM HEPES (pH 7.4), 140 mM choline chloride, and 5 mM sodium arsenate], followed by two further washes with same buffer. The drained cell layer then was solubilized in 0.5 ml of Lysis Buffer, and cell-associated radioactivity was determined by Cerenkov counting, as previously described (Guo, J., et al., Endocrinology 136:3884-3891 (1995))."}
{"substance": "hPTH(1-31)", "values": [{"measurement": "maximal activation of phosphate uptake (in words)", "result": "comparable maximal activation of phosphate uptake"}]}
